Measurements as given in US20200206304A1, “METHODS AND COMPOSITIONS FOR EFFICIENT DELIVERY THROUGH MULTIPLE BIO BARRIERS” (Cedars-Sinai Medical Center, priority 2017, published 2020).
Like-named read-outs stand apart in the source and are kept apart here.

Tests used:
[1] = system: LRP-1 transcytosis pathway; details: 70-fold molar excess of P/LLL (40%)
[2] = system: glioblastoma GL261; details: mouse, in vivo
[3] = biological target: T1, Aβ plaque (Homo sapiens, UniProt P05067); experiment: Percentage of total plaques labeled by mini nanodrugs in AD mice; type: in vivo,  (B6.Cg-Tg (APPswe/PS1ΔE9) 85Dbo/J hemizygous) mice; details: injected dose 8X (0.55 μmol/Kg)
T1 construct: tissue Jackson Laboratories; host or cells: brain of 6-8 month old APPswe/PS1ΔE9 transgenic mice, plaques labelled in vivo after iv injection and counterstained on sections
Procedure: Slides were air dries and fixed using freshly diluted 2% PFA for 5 minutes. The PFA was washed 3 timed with PBS, and brains were covered with 70% EtOH for 5 minutes before washing with dH2O for 2 minutes. 1× Amylo-Glo (Biosenses, #TR-300-AG 100×, diluted with PBS) was then added for 10 minutes. The slides were then washed with PBS (5 minutes) and dH2O (15 seconds) and mounted (Fluoromount-G, No DAPI, Invitrogen), and stored at 4° C. prior to imaging.
Brains were collected and preserved in OTC for immunostaining.

[4] = system: Brain (other hemisphere); details: 2 h, PBS background subtracted
[5] = system: brain parenchyma
Procedure: To determine how nanoconjugate-associated fluorescence relates to the anatomy of the vasculature, the distance of each analyzed ROI was manually measured from the nearest blood vessel wall (using line tool in FIJI). For tumor bearing mice, 5 images per tumor tissue and 5 per brain tissue were analyzed for each mouse. Intensity values were then plotted against the location of the blood vessel wall and summarized in scatterplots (e.g., FIG. 14B).
Drug concentrations are listed with regard to total nanoconjugate content systemically injected. […] Referring to FIG. 14B, fluorescence measurements were obtained from 10 μm^2-sized regions of interest (ROI) that were randomly overlaid on regions devoid of vasculature shown as yellow squares on photograph 1 of FIG. 14A. Intensity measurements and positions were then obtained for each ROI and plotted against the location of the nearest blood vessel wall. FIG. 14C is set of charts: chart 1—Cortex; chart 2—Midbrain and chart 3 Hippocampus, illustrating average nanoconjugate fluorescence in the brain parenchyma measured following injections at four different drug concentrations. In this figure, fluorescence is shown as relative fluorescence, which is the measured nanoconjugate fluorescence after subtraction of autofluorescence imaged from PBS injected animals using similar acquisition settings.
FIG. 14B explores this relationship in a plot from all of the measurements (for each condition: 4 mice, 3-4 sections with 20 random measurements each). All fluorescence intensity measurements were conducted with 10 μm^2-sized regions of interest placed outside of tomato-lectin stained blood vessels (ROI as in Photograph 1 of FIG. 14A); the positions of these ROIs were then measured against the location of the nearest blood vessel wall to produce the scatterplot in FIG. 14B.
The resulting data were used as a metric to examine how well the mini nanodrug was able to travel from the vessels into the surrounding parenchyma and encounter brain cells. […] Nanoconjugate diffused fluorescence intensity vs. ‘distance from vasculature’ measurements in brain parenchyma of mice injected with nanoconjugates at a dose of 0.274 μmol/Kg. Fluorescence measurements were obtained from […] regions of interest (ROI) that were randomly overlaid on regions devoid of vasculature (shown by yellow squares in FIG. 22A). Intensity measurements and positions were then obtained for each ROI and plotted against the location of the nearest blood vessel wall.

[6] = system: blood-brain barrier (BBB); experiment: BBB penetration: nanoconjugate fluorescence in brain parenchyma of healthy mice by optical imaging
Procedure: Healthy Mice: Eight to nine-week-old BALB/C and BLACK-6 mice were obtained from Charles River Laboratories (Wilmington, Mass., USA). […] Three to four mice of each sex were used for each experiment.
Nanoconjugates were dissolved freshly in PBS (pH 7.4) prior to each experiment and injected intravenously (i.v.) into the lateral tail vein. Mice were anesthetized with isoflurane beforehand, and their tails were briefly warmed to facilitate injections. […] The drug injection volume was kept constant at 150 μL. After each injection, mice were promptly returned to their cages. Eight to nine-week-old B116 mice were obtained from Charles River Laboratories (Wilmington, Mass., USA). […] Three to four mice of each sex were used for each experiment. Nanoconjugates were dissolved freshly in PBS (pH 7.4) prior to each experiment and injected intravenously (i.v.) into the lateral tail vein. […] All mice were euthanized 2 h post drug injection. Mice were anesthetized with isoflurane beforehand and their tails were briefly warmed to facilitate injections. All conjugates were administered as a single dose, as indicated for each experiment (4× or 8×). […]
In this analysis, 20×10 μm^2 or 10×10 μm^2 sized regions of interest (ROI) were randomly overlaid on images showing the vasculature, explicitly avoiding blood vessels. For FIG. 30A, the ROI was drawn around all Neun stained nucleuses detected. Intensity measurements and positions were then obtained for each ROI after it was separately overlaid on the image showing nanoconjugate fluorescence.
Fluorescence measurements were thus based on the anatomy of the cerebral vasculature rather than nanoconjugate labeling of whole sections or extracts of brain parenchyma and were therefore unbiased and intentionally avoiding the nanoconjugate load in the cerebral vasculature.
All nanoconjugate fluorescence measurements in brain parenchyma (e.g., FIGS. 14B-14C (1-3); 16B (1-3); 19B-19E; 20C-20D; and FIG. 22B) are presented as relative fluorescence intensities. […] Relative fluorescence measurements thus represent total fluorescence minus representative autofluorescence. […]

T1 sequence (P05067 672-713 limits assumed): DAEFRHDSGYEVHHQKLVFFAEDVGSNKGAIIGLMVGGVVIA

PMLA/LLL/AP2/rhodamine [P/LLL/AP2]
competition by unlabeled P/LLL (40%) [1]: did not exhibit competition
increase in tumor selectivity with the increase of the dose [2]: 2.4 fold
Percentage of total plaques labeled by the reagents [3]: 1.23%
Brain (other hemisphere) fluorescence ([4]; dose 1X): 2.1
Brain (other hemisphere) fluorescence ([4]; dose 4X): 9.4
fluorescence intensity decrease (slope), linear regression vs distance from vessel ([5]; 0.274 μmol/kg, 120 min): −0.272±0.07
γ-intercept of linear regression, fluorescence vs distance ([5]; 0.274 μmol/kg, 120 min): 17.49±0.8
γ-intercept of linear regression, fluorescence vs distance ([5]; 0.068 mol/kg, 120 min): 6.342±0.34
cortex Y intercepts of fluorescence vs distance curves (exponential fits) ([5]; cortex, 0.274 μmol/Kg): 14.7
time at which nanoconjugate fluorescence could not be distinguished from background of brain parenchyma ([6]; 0.068 μmol/kg i.v.): 240 min
time of maximal conjugate fluorescence in cortex parenchyma ([6]; 0.068 μmol/kg i.v.): 30 min
fluorescence intensity in normal brain ([6]; dose 8×): 30 units
